Experimental data from patent publication US20060142171A1, “Novel alkaline protease” (priority 2003, published 2006).
Several values for one entry are separate records, joined by “and”; a condition that tells them apart may be missing. Equal entries are not always repeated.

Legend:
[1] = Differential scanning calorimetry; format: physicochemical
Experimental: The influence of different parameters including pH, calcium ions, EDTA, and detergent on thermal stability of the AL protease was investigated by differential scanning calorimetry (DSC). Comparative studies were also performed with Subtilisin Carlsberg. Thermal scans of AL protease (0.3 mg protein/ml) and subtilisin (2.5 mg protein/ml in the presence of 1 mM phenyl-methanesulfonyl fluoride (PMSF); Sigma) were performed by increasing temperature from 25° C. to 95° C. at a scan rate of 1° C. per min on a VP-DSC (MicroCal, Northampton, Mass.). The thermograms were corrected by subtracting the base line, obtained from a blank scan of the no-enzyme solution, and normalized for protein concentration. The unfolding transition of the AL protease was fitted to a two-state model. The Tm (temperature at which heat capacity change is a maximum), the calorimetric (or true) enthalpy ΔHcal (peak area), and van't Hoff (or apparent) enthalpy AHVH (calculated from the shape of thermogram) were calculated using the Origin software provided by MicroCal.

[2] = system: elastin-orcein; assay: Elastolytic activity; format: biochemical; conditions: 100 mM Tris-HCl buffer pH 8.8, 37° C.
Experimental: Elastolytic activity of AL protease was estimated by the method of (Tsai et al. 1983) with slight modification. The reaction mixture in a total volume of 1.5 ml comprised of 20 mg elastin-orcein and an appropriate amount of the enzyme in 100 mM Tris-HCl buffer pH 8.8, was incubated at 37° C. for 1 h with constant shaking. The substrate was removed by centrifugation and increase in optical density was measured at 590 nm. A control reaction was performed using the denatured enzyme as described above. The concentration of soluble products liberated was calculated from a standard curve using elastase. One unit was defined as the amount of enzyme, which solubilizes 100 μg of elastin under standard reaction conditions.

[3] = system: haemoglobin; assay: Protease activity with haemoglobin as substrate; format: biochemical; conditions: 50 mM glycine-NaOH, pH 10 at 50° C.
[4] = system: keratin azure; assay: Keratinolytic activity; format: biochemical; conditions: 10 mM glycine-NaOH, pH 10 at 50° C.
Experimental: The hydrolysis of keratin azure (Sigma) by the AL protease was determined according to the modified method of Santos et al. (1996). The reaction mixture (1.5 ml) comprising 0.5 ml of the enzyme solution and 10 mg keratin-azure in 10 mM glycine-NaOH buffer, pH 10 was incubated at 50° C. with constant shaking over 24 h period. The substrate was removed by centrifugation and liberation of the azo dye was measured at 595 nm. The reaction under similar conditions using heat-treated enzyme (by incubation in a boiling water bath for 15 min) was also run as a control. One unit (U) of keratinolytic activity was defined as an increase in the A595nm of 0.01 after 2 h.

[5] = system: casein; assay: Residual protease activity after incubation (pH, temperature, detergent components); format: biochemical; conditions: for Enzyme activity after incubation: 90 min at 40° C.; for Residual activity (% of original activity): 1 h at 50° C.
Experimental: The effect of pH on enzyme stability was studied by incubating the enzyme in different buffers of varying pH values at 50° C. for 1 h and then measuring the residual activity using standard assay procedure. AL protease was very stable in a broad pH range, maintaining over 90% of its original activity between pH 6 and 11, and more than 70% activity at pH 12 (FIG. 8A).
The effect of temperature on activity of the two proteases was determined by assaying enzyme activity at different temperatures in glycine-NaOH buffer, pH 10, while the thermal stability was determined by incubating the enzymes at different temperatures followed by measuring the residual activity under standard conditions. These measurements were done both in the presence and absence of 5 mM Ca^2+. […] Its optimum temperature for activity was at 70° C. (FIG. 9A), but when incubated at that temperature the enzyme was inactivated within 1 h (FIG. 10A). […] At temperature values above 50° C. Ca^2+ was absolutely required for the thermal stability of AL-89 protease (FIG. 10B).
Assay of protease activity was performed according to Ferrero et al. with some modifications. One millilitre of the reaction mixture containing 1% casein in 50 mM glycine-NaOH buffer, pH 10.0 and an appropriate amount of enzyme was incubated at 50° C. for 20 min after which the reaction was terminated by addition of 0.5 ml of trichloroacetic acid and centrifuged. 2.5 ml sodium carbonate was added to 0.5 ml supernatant followed by 0.5 ml of 1 M Folin-Ciocalteau reagent. The reaction mixture was allowed to stand for 30 min at room temperature before measuring the absorbance at 660 nm. One unit of protease activity was defined as the amount of enzyme, which released 1 μg tyrosine per min under standard assay conditions.
Effect of oxidation by H2O2 on AL protease stability was determined by residual activity measurements because of the temperature-induced decomposition of the peroxide in the calorimeter. […] Residual activity of the AL protease was also studied after incubation with sodium tripolyphosphate (STP; Sigma), sodium-Zeolite 4A (Prayon Tessenderlo, Belgium) and sodium citrate, respectively, representing some of the sequestering agents used in washing detergents. The enzyme activity was unchanged in the presence of 0.01-0.05% (w/v) Zeolite and STP, respectively, after 90 min at 40° C., and more than 80% of the original activity was retained in the presence of 0.5 M citrate (data not shown).

[6] = pre-treated with chelex, or with 5 mM Ca^2+ or 10.0 mM EDTA, pH 10.0
[7] = untreated, 10 mM glycine-NaOH buffer, pH 10.0 (subtilisin with 1 mM PMSF)

B1: AL protease: thermostable alkaline, non-Ca2+-dependent serine protease isolated from Nesterenkonia sp. nov. strain AL (DSM 15380); SEQ. ID. NO. 1 (protein, listed as Nesterenkonia sp.)
chain: QNPADSPHIGKVFFSTNQGDFVCSANIVASANQSTVATAGHCLHDGNGGQFARNFVFAPAYDYGESEHGVWAAEELVTSAEWANRGDFEHDYAFAVLETKGGTTVQQQVGTASPIAFNQPRGQYYSAYGYPAAAPFNGQELHSCHGTATNDPMGSSTQGIPCNMTGGSSGGPWFLGQGTGGAQNSVNSYGYTFLPDVMFGPYFGSGAQQNYNYAST
In the case of B1, the “Decrease in Tm” value ([1]; 1% SDS vs untreated, pH 10.0) is reported as 1.4 °C, the “Decrease in ΔHcal” value ([1]; 1% SDS vs untreated, pH 10.0) is reported as 17 kJ/mol and the Tm ([1]; +0.1% SDS, pH 10.0) is reported as 74.5 ± 0.03 °C. The ΔHcal ([1]; +0.1% SDS, pH 10.0) was 661 ± 2.9 kJ/mol, the Tm ([1]; +0.5% SDS, pH 10.0) was 74.1 ± 0.02 °C and the ΔHcal ([1]; +0.5% SDS, pH 10.0) was 661 ± 2.9 kJ/mol. The Tm ([1]; +1% SDS, pH 10.0) was 73.1 ± 0.02 °C, the ΔHcal ([1]; +1% SDS, pH 10.0) was 644 ± 2.5 kJ/mol and the “Mean ratio of ΔHcal to ΔHvH” value ([1]; at any given pH) was “close to unity (±0.05)”. For the same molecule, the Tm ([1]; pH 6) was 69.7 °C and 69.7 ± 0.02 °C, the ΔHcal ([1]; pH 6) was 590 kJ/mol and 589.9 ± 2.1 kJ/mol and the ΔHcal/ΔHvH ([1]; pH 6) was 0.94. The ΔHvH ([1]; pH 6) was 627.6 ± 5.02 kJ/mol, the Tm ([1]; pH 7) was 73.5 ± 0.02 °C and the ΔHcal ([1]; pH 7) was 623.4 ± 2.1 kJ/mol. The ΔHcal/ΔHvH ([1]; pH 7) was 1.02, the ΔHvH ([1]; pH 7) was 615 ± 5.02 kJ/mol and the Melting temperature ([1]; pH 7-10) was “about 74 °C”. It also gave a Tm ([1]; pH 8) of 74.3 ± 0.02 °C, a ΔHcal ([1]; pH 8) of 661.1 ± 2.1 kJ/mol and a ΔHcal/ΔHvH ([1]; pH 8) of 0.93. The ΔHvH ([1]; pH 8) was 715.5 ± 5.02 kJ/mol, the Tm ([1]; pH 9) was 74.5 ± 0.02 °C and the ΔHcal ([1]; pH 9) was 659 ± 2.1 kJ/mol. It also gave a ΔHcal/ΔHvH ([1]; pH 9) of 1.02, a ΔHvH ([1]; pH 9) of 648.5 ± 5.44 kJ/mol and a Tm ([1]; pH 10) of 74.5 ± 0.03 °C. The ΔHcal ([1]; pH 10) was 661 kJ/mol and 661.1 ± 2.1 kJ/mol, the ΔHcal/ΔHvH ([1]; pH 10) was 0.95 and the ΔHvH ([1]; pH 10) was 698.7 ± 7.11 kJ/mol. For the same molecule, the Tm ([1]; pH 11) was 72.0 °C and 72.6 ± 0.02 °C, the ΔHcal ([1]; pH 11) was 594 kJ/mol and 592 ± 2.1 kJ/mol and the ΔHcal/ΔHvH ([1]; pH 11) was 1.01. For the same molecule, the ΔHvH ([1]; pH 11) was 589.9 ± 5.44 kJ/mol, the “Melting temperature, Tm” value ([1]; pH range of 8.0-10.0) was “around 74 °C” and the “Melting profile and denaturation temperature” value [1, 6] was “unaltered”. The ΔHcal [1, 6] was “around 158±0.5 kcal/mol”, the Tm [1, 7] was 74.5 ± 0.03 °C and the ΔHcal [1, 7] was 661 ± 2.5 kJ/mol. The Hydrolysis of elastin-orcein [2] was “able to hydrolyse elastin-orcein to a detectable level”, the “Time to complete hydrolysis of haemoglobin” value [3] was at most 20 min and the “Time of main hydrolysis of keratin-azure” value [4] was 2 to 12 h. For the same molecule, the “Enzyme activity after incubation” value ([5]; 0.01-0.05% (w/v) STP, data not shown) was “unchanged”, the “Enzyme activity after incubation” value ([5]; 0.01-0.05% (w/v) Zeolite, data not shown) was “unchanged” and the Original activity retained ([5]; 0.5 M citrate, data not shown) was “more than 80%”. The “Activity, % of the original” value ([5]; 1 M peroxide (H2O2) at 40° C. for 90 min) was 60%, the “Effect on activity relative to 1 M peroxide” value ([5]; 1.6 M peroxide (H2O2), 40° C.) was “did not reduce the activity further” and the “Residual activity (% of original activity)” value ([5]; between pH 6 and 11) was “over 90%”. The “Residual activity (% of original activity)” value ([5]; pH 12) was “more than 70%”, the Thermal stability ([5]; 1 h incubation at 65° C., presence or absence of Ca^2+) was “very good stability” and the Initial activity retained ([5]; 90 min incubation with 1% SDS at 40° C., pH 10.0) was “About 75%”. The Time to inactivation ([5]; incubated at 70° C.) was at most 1 h.
